Results on 1 molecule are retold here after PMC11098746 (2024).

Common to all, as to test: AVEXIS screen signal:noise (double-corrected)
One assay addresses ADP386.
For another assay, the target named is T1, ADP381.
T1 chain: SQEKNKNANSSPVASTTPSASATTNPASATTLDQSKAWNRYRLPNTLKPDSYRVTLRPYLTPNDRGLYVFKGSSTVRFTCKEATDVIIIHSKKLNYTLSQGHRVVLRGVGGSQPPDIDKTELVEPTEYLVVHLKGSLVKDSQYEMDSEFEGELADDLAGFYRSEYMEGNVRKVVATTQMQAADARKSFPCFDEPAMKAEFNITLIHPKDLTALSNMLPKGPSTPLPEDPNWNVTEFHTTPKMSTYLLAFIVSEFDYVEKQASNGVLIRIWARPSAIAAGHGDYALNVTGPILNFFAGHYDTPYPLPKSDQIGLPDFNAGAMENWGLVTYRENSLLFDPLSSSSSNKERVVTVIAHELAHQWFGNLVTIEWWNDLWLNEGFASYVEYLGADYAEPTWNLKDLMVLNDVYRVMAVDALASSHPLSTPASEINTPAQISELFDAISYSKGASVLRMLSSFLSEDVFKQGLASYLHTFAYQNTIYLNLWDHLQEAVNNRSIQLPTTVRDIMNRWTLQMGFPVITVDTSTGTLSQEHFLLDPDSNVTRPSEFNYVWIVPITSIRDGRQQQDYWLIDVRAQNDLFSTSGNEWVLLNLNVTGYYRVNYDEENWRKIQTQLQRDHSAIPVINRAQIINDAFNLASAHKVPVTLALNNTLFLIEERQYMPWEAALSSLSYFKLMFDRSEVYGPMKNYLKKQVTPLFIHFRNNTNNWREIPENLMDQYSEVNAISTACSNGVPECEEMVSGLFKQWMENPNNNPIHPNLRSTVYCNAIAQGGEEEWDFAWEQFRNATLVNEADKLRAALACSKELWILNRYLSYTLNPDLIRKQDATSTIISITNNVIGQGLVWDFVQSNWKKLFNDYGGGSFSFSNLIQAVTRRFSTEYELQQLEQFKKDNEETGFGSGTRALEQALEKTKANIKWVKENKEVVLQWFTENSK

The next assay has as its target T2, ADP264.
T2 chain: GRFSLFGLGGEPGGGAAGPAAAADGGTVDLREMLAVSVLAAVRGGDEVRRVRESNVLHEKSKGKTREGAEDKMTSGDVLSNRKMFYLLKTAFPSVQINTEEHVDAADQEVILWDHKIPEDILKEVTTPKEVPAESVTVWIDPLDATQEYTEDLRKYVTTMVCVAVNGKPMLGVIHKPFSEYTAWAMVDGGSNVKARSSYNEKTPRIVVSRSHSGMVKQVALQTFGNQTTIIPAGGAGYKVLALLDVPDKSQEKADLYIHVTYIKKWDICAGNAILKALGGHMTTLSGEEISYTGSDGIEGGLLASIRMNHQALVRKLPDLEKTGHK

The target in the next assay is T3, ADP385.
T3 chain: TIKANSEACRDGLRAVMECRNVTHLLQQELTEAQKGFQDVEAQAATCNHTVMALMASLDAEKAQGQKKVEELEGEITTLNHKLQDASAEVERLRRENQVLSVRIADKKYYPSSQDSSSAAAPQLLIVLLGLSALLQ

For the next assay, the target named is ADP099.
ADP099, sequence (P02786 89-760): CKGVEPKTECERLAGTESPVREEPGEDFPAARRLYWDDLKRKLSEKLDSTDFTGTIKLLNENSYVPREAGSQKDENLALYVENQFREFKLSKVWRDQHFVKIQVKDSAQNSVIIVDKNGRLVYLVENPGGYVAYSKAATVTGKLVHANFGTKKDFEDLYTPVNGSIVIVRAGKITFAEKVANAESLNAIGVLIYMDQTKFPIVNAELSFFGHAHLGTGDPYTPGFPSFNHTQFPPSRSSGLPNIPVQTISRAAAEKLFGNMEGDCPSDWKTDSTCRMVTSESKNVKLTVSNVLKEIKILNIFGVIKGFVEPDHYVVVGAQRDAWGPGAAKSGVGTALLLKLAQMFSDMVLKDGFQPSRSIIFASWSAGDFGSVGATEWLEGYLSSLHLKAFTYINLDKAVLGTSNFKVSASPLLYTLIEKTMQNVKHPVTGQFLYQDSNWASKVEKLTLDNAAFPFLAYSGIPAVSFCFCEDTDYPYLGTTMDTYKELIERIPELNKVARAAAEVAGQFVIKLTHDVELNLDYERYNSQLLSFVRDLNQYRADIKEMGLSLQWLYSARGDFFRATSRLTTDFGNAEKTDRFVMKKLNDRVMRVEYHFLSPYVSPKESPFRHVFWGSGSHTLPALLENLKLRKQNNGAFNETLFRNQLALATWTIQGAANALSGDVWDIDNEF
The next assay deals with T4, ADP293.
T4 chain: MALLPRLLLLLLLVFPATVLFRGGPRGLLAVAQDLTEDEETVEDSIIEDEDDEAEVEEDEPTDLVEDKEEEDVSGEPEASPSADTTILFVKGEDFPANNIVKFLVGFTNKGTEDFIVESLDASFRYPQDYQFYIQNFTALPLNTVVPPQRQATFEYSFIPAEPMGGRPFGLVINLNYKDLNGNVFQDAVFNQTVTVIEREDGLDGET

Another assay has as its target T5, ADP106.
T5 chain: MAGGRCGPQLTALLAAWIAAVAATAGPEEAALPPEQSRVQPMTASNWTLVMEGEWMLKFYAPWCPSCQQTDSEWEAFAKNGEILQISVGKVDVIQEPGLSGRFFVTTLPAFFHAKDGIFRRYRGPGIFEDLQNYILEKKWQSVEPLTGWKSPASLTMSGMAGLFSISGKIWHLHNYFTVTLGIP

A further assay deals with T6, ADP379.
T6 chain: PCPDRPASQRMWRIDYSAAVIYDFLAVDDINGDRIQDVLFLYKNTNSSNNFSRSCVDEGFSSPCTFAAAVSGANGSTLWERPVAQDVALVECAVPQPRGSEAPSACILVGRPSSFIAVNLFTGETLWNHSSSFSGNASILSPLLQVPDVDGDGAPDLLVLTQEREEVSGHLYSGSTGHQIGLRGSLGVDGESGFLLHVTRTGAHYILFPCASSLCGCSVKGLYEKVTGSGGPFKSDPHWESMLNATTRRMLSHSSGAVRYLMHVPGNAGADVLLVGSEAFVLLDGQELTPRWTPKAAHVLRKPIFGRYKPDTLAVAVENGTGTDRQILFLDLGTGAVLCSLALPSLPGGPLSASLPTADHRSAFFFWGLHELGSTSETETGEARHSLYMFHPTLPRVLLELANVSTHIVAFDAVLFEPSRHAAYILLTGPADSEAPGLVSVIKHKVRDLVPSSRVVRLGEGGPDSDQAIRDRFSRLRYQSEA

B1: ADP237 (protein)
chain: TKKKVSVSEINFDSAVDDVQWCGNNHMTVLVKTVKGRLYRSSDGGKIWTNIAGNLADKENNKADPSSNHMNEMTTVDLIMVNSVNKNIVLIIGNQKNHYISEDSGETFRLLNYQNKINFWQFHSTKTHWALVSSWTEACYSNDDNSGECMQTLSLTKDLGRTFQLIDIYVVQFNWGDKESHLEDTIYYTRHKNRNGHQQRFSGWSKDVDFVATHNFGKSVDVLVKQGNKFLISNGYIFVAKLNDVIKQTVNMMVSTDGGKTFNKANLPENIHEKSYTVLDTSEGSIMLHVNHGTSSEKINTGNVYISDASGLNYALSLPNNIRTSSGECEFDRVLSLDGVYIANFLDVNNEIKDEDLRFQNFKSAIEEDIAPFETNTEKRKKQYNKGKNEDAVRTVISFNKGGEWSYLKAPKVDSRGNKYECGDNCYLHLHGITNYHQYAPFYSIENAVGIIMGTGNVGSHLRYESDEVNTFLSRDGGVTWIEAHKGPYIYEYGDYGGLIVMADDLRKTNQIVFSWNEGQSWFDFELGQFSIDVDNIVAEPNSASVEFLVYGTRNDVGVLYHLDFNALGQPLCKGLWAADSVSSDYETWSPTSGNFNDKCILGRKITYTRRKQTSECFNGKDLKRTVDKKPCECTPEDYECETGFTRKIGSYECKPNDPTLTIEGCTSSSYFYANAYRKVPGDICVNGWVPEKVPVPCPSYAPFNKAAK
modifications: bait human Fc-tagged dimer; N-glycosylation sequons mutated in Plasmodium baits
On to B1, for which the binding score with ADP386 turned out to be 19.2; in the assay with ADP381, 8.67; in the assay with ADP264, 9.43; in the assay with ADP385, 5.45; in the assay with ADP099, 5.11; with ADP293, 11.1. Besides, the binding score with ADP106 came out at 10.3; in the assay with ADP379 it was 16.2.
